Reference: the supplement of paper PMC10471632, “Protein engineering and iterative multimodule optimization for vitamin B6 production in Escherichia coli” (Nature Communications, 2023)
± gives the standard deviation of the averaged measurements.

B1: library; numbered along this chain (parent)
chain: MAELLLGVNIDHIATLRNARGTAYPDPVQAAFIAEQAGADGITVHLREDRRHITDRDVRILRQTLDTRMNLEMAVTEEMLAIAVETKPHFCCLVPEKRQEVTTEGGLDVAGQRDKMRDACKRLADAGIQVSLFIDADEEQIKAAAEVGAPFIEIHTGCYADAKTDAEQAQELARIAKAATFAASLGLKVNAGHGLTYHNVKAIAAIPEMHELNIGHAIIGRAVMTGLKDAVAEMKRLMLEARG

Variants of: B1
Test: pyridoxine titer in culture supernatant of strain expressing the PdxJ variant; higher = more PN produced (higher in vivo pathway activity of the PdxJ variant)
Settings: host strain: E. coli LL006; 48 h; temperature: 37 °C; FM1.4
Protocol: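 Rosetta-designed single to quadruple mutants of E. coli PdxJ (PNP synthase) were expressed from pRSFDuet-1 in the engineered chassis E. coli LL006 (MG1655 ΔpdxH::pdxST, pta::Eme_pdxP). Strains were grown in 24 deep-well plates in 2 mL FM1.4 glycerol medium at 37 °C and 800 rpm for 48 h. Extracellular pyridoxine (PN) titer was quantified by HPLC with fluorescence detection; two biological replicates, with the WT pdxJ strain (LL137, about 0.5 mg/L) as control.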
Variant MAELLLGVNIDHVATLRNARGTAYPDPVQAAFIAEQAGADGITVHLREDRRHITDRDVRILRQTLDTRMNLEMAVTEEMLAIAVETKPHFCCLVPEKRQIVTTEGGLDVAGQRDKMRDACKRLADAGIQVSLFIDADEEQIKAAAEVGAPFIEIHTGCYADAKTDAEQAQELARIAKAATFAASLGLKVNAGHGLTYHNVKAIAAIPEMHEINIGHAIIGRAVMTGLKDAVAEMKRLMLEARG [I13V E100I L212I] has a pyridoxine titer of 6.04 ± 1.9 mg/L. In the case of MAELLLGVNIDHIATLRNARGTTYPDPVQAAFIAEQAGADGITVHLREDRRHITDRDVRILRQTLDTRMNLEMAVTEEMLAIAVETKPHFCCLVPEKRQEVTTTGGLDVAGQRDKMRDACKRLADAGIQVSLFIDADEEQIKAAAEVGAPFIEIHTGCYADAKTDAEQAQELARIAKAATFAASLGLKVNAGHGLTYHNVKAIAAIPEMHEINIGHAIIGRAVMTGLKDAVAEMKRLMLEARG [A23T E104T L212I], the pyridoxine titer is reported as 3.44 ± 1.2 mg/L. For MAELLLGVNLDHIATLRNARGTTYPDPVQAAFIAEQAGADGITVHLREDRRHITDRDVRILRQTLDTRMNLEMAVTEEMLAIAVETKPHFCCLVPEKRQEVTTEGGLDVAGQRDKMRDACKRLADAGIQVSLFIDADEEQIKAAAEVGAPFIEIHTGCYADAKTDAEQAQELARIAKAATFAASLGLKVNAGHGLTYHNVKAIAAIPEMHELNIGHAIIGRAVMTGLKDAVAEMKRLMLEARG [I10L A23T], the pyridoxine titer was 1.39 ± 0.2 mg/L. MAELLLGVNIDHIATLRNARGTAYPDPVQAAFIAEQAGADGITVHLREDRRHITDRDVRILRQTLDTRMNLEMAVTEEMLAIAVETKPHFCCLVPEKRQEVTTTGGLDVAGQRDKMRDACKRLADAGIQVSLFIDADEEQIKAAAEVGAPFIEIHTGCYADAKTDAEQAQELARIAKAATFAASLGLKVNAGHCLYYHNVKAIAAIPEMHELNIGHALIGRAVMTGLKDAVAEMKRLMLEARG [E104T G194C T196Y I218L] showed a pyridoxine titer of 0.557 ± 0.059 mg/L. MAELLLGVNIDHVAVLRNARGTAYPDPVQAAFIAEQAGADGITVHLREDRRHITDRDVRILRQTLDTRMNLEMAVTEEMLAIAVETKPHFCCLVPEKRQEVTTEGGLDVAGQRDKMRDACKRLADAGIQVSLFIDADEEQIKAAAEVGAPFIEIHTGCYADAKTDAEQAQELARIAKAATFAASLGLKVNAGHGLTYHNVKAIAAIPEMHEINIGHAIIGRAVMTGLKDAVAEMKRLMLEARG [I13V T15V L212I] gave a pyridoxine titer of 0.41 ± 0.13 mg/L. With MAELLLGVNIDHIATLRNARMTAYPDPVQAAFIAEQAGADGITVHLREDRRHITDRDVRILRQTLDTRMNLEMAVTEEMLAIAVETKPHFCCLVPEKRQEVTTEGGLDVAGQRDKMRDACKRLADAGIQVSLFIDADEEQIKAAAEVGAPFIEIHTGCYADAKTDAEQAQELARIAKAATFAASLGLKVNAGHCLTYHNVKAIAAIPEMHELNIGHAIIGRAVMTGLKDAVAEMKRLMLEARG [G21M G194C] the pyridoxine titer was 0.6 ± 0.014 mg/L. With MAELLLGVNLDHIATLRNARGTAYPDPVQAAFIAEQAGADGITVHLREDRRHITDRDVRILRQTLDTRMNLEMAVTEEMLAIAVETKPHFCCLVPEKRQEVTTTGGLDVAGQRDKMRDACKRLADAGIQVSLFIDADEEQIKAAAEVGAPFIEIHTGCYADAKTDAEQAQELARIAKAATFAASLGLKVNAGHQLTYHNVKAIAAIPEMHELNIGHALIGRAVMTGLKDAVAEMKRLMLEARG [I10L E104T G194Q I218L] the pyridoxine titer was 1.46 ± 0.011 mg/L. Work on MAELLLGVNIDHIATLRNARGTTVPDPVQAAFIAEQAGADGITVHLREDRRHITDRDVRILRQTLDTRMNLEMAVTEEMLAIAVETKPHFCCLVPEKRQEVTTEGGLDVAGQRDKMRDACKRLADAGIQVSLFIDADEEQIKAAAEVGAPFIEIHTGCYADAKTDAEQAQELARIAKAATFAASLGLKVNAGHGLTYHNVKAIAAIPEMHELNIGHAIIGRAVMTGLKDAVAEMKRLMLEARG [A23T Y24V] yielded a pyridoxine titer of 0.39 ± 0.028 mg/L. With MAELLLLVNIDHIATLRNARGTAYPDPVQAAFIAEQAGADGITVHLREDRRHITDRDVRILRQTLDTRMNLEMAVTEEMLAIAVETKPHFCCLVPEKRQEVTTEGGLDVAGQRDKMRDACKRLADAGIQVSLFIDADEEQIKAAAEVGAPFIEIHTGCYADAKTDAEQAQELARIAKAATFAASLGLKVNAGHGLTYHNVKAIAAIPEMHELNIGHALIGRAVMTGLKDAVAEMKRLMLEARG [G7L I218L] the pyridoxine titer was 0.76 mg/L. For MAELLLGVNIDHIATLRNARGTAYPDPVQAAFIAEQAGADGITVHLREDRRHITDRDVRILRQTLDTRMNLEMAVTEEMLAIAVETKPHFCCLVPEKRQEVTTEGGLDVAGQRDKMRDACKRLADAGIQVSLFIDADEEQIKAAAEVGAPFIEIHTGCYADAKTDAEQAQELARIAKAATFAASLGLKVNAGHGLTYHNVKAIAAIPEMHELIIGHALIGRAVMTGLKDAVAEMKRLMLEARG [N213I I218L], the pyridoxine titer was 1.1 ± 0.14 mg/L. MAELLLGVNLDHIATLRNARGTAYPDPVQAAFIAEQAGADGITVHLREDRRHITDRDVRILRQTLDTRMNLEMAVTEEMLAIAVETKPHFCCLVPEKRQEVTLEGGLDVAGQRDKMRDACKRLADAGIQVSLFIDADEEQIKAAAEVGAPFIEIHTGCYADAKTDAEQAQELARIAKAATFAASLGLKVNAGHGLTYHNVKAIAAIPEMHEINIGHAIIGRAVMTGLKDAVAEMKRLMLEARG [I10L T103L L212I] gave a pyridoxine titer of 0.43 ± 0.071 mg/L. With MAELLLGVNIDHVATLRNARGTAYPDPVQAAFIAEQAGADGITVHLREDRRHITDRDVRILRQTLDTRMNLEMAVTEEMLAIAVETKPHFCCLVPEKRQEVTTEGGLDVAGQRDKMRDACKRLADAGIQVSLFIDADEEQIKAAAEVGAPFIEIHTGCYADAKTDAEQAQELARIAKAATFAASLGLKVNAGHGLTYHNVKAIAAIPEMHEINIGHAIIGRAVMTGLKDAVAEMKRLMLEARG [I13V L212I] the pyridoxine titer was 1.07 ± 0.3 mg/L.
